Measurements published in paper PMC3477590 (Molecular cell, 2012).

Molecular target: minimally biotinylated GLMN (wild-type) (human, UniProt Q92990 1-594, minimally biotinylated)
Assay: SPR

minimally biotinylated GLMN (wild-type), sequence (Q92990 whole entry): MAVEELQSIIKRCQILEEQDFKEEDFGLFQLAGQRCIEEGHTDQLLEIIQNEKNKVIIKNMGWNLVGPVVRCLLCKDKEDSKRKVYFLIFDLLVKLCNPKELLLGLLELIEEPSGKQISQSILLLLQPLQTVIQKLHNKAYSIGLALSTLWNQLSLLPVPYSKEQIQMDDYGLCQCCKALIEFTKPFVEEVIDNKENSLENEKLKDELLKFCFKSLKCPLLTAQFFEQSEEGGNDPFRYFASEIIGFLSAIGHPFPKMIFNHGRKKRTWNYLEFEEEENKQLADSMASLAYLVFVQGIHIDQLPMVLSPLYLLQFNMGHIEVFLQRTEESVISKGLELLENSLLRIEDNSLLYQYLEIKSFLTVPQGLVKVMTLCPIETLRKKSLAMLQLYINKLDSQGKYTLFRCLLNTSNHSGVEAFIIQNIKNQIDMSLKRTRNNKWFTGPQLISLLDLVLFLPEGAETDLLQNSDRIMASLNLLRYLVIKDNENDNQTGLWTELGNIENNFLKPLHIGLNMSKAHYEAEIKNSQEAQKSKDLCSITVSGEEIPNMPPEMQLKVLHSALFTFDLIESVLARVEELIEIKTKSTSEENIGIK

- Kd: 38.6 nM
B1: isolated RBX1 RING domain (domain or fragment)
chain: not shown
